Like-named read-outs stand apart in the source and are kept apart here.
Legend:
[1] = biological target: T1, human Tie2 (on human Tie2-expressing cells) (human, UniProt Q02763 23-1124); test: cell-based or functional assay
[2] = biological target: T1, human Tie2 (on human Tie2-expressing …); test: cell-based or functional assay; remark: listed apart in the source
[3] = biological target: T1, human Tie2 (on human Tie2-expressing …); test: cell-based or functional assay; remark: listed apart in the source
[4] = biological target: T2, recombinant human Tie2-Fc chimeric protein (R&D, 313-TI-100) (human, UniProt Q02763 23-745); test: ELISA, Tie2-Fc coated, HRP/TMB absorbance at 450 nm
T2 construct: Bought reagent; Fc part of the bought chimera not given

[5] = biological target: T3, recombinant monkey Tie2-Fc chimeric protein (Sino Biological Inc., 90292-C02H) (monkey); test: as above
T3 construct: Bought reagent

[6] = biological target: T1, human Tie2 (on human Tie2-expressing …); test: cell-based or functional assay; remark: listed apart in the source

T1 sequence (Q02763 23-1124): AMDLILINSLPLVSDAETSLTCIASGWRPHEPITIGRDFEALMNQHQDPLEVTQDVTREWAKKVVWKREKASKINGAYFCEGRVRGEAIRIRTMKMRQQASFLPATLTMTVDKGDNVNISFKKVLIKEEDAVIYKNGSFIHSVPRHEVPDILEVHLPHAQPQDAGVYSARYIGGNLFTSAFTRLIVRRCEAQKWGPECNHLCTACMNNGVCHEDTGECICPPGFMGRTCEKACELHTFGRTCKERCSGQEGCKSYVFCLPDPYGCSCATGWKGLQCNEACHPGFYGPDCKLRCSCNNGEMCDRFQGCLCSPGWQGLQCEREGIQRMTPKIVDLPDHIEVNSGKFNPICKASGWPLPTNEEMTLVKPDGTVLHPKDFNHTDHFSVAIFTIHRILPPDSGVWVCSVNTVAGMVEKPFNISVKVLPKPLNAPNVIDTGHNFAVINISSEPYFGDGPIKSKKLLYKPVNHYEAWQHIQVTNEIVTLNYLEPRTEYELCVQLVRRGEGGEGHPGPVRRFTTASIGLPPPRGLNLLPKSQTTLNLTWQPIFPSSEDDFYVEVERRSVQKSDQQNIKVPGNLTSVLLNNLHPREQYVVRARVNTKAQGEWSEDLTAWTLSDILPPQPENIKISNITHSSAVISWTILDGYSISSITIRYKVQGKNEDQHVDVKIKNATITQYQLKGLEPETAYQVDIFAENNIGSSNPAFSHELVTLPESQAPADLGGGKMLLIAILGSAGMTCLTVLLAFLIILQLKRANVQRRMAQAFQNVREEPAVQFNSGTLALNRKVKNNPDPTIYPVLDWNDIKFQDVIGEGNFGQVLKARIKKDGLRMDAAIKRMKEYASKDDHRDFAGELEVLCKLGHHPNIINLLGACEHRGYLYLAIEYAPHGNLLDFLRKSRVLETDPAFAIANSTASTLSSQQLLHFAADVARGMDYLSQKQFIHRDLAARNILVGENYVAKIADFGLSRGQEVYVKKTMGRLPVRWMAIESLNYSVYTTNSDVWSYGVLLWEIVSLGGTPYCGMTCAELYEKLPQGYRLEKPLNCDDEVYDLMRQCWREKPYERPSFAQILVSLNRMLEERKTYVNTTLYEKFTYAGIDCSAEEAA
T2 sequence (Q02763 23-745, change not shown): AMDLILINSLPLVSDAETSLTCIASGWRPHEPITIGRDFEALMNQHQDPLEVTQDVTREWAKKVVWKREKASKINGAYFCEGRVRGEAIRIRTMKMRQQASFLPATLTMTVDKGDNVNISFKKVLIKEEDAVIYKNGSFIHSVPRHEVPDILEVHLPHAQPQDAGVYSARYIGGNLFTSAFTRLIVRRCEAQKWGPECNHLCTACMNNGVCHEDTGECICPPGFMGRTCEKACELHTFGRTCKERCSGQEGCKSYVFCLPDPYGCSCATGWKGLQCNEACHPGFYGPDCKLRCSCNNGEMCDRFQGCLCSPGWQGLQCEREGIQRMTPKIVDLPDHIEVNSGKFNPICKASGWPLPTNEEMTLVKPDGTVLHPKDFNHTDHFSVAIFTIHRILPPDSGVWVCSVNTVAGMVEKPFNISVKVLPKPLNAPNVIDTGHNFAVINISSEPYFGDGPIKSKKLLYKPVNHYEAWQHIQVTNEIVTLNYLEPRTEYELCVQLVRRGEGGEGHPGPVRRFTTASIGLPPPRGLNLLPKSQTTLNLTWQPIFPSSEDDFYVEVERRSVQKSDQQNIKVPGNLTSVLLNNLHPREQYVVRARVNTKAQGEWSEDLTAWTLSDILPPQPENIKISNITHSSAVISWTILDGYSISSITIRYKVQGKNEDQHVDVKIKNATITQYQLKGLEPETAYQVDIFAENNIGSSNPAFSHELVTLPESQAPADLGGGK

B1: TIE-1-Igγ1-WT (antibody, human IgG1, kappa)
heavy: not shown
light: DIQMTQSPSSLSASVGDRVTITCRSSQSLLHSHRYNYLDWYQQKPGKAPKLLIYLGSNRASGVPSRFSGSGSGTDFTLTISSVQPEDFATYYCMQTLQTPLTFGQGTKVEIKRTVAAPSVFIFPPSDEQLKSGTASVVCLLNNFYPREAKVQWKVDNALQSGNSQESVTEQDSKDSTYSLSSTLTLSKADYEKHKVYACEVTHQGLSSPVTKSFNRGEC
- EC50 value of anti-apoptotic activity, human Tie2-expressing BaF3 cell [1]: 0.0071 µg/mL

B2: murine monoclonal antibody 15B8 (antibody, V domains shown)
VH: QVQLQQPGVVLVMPGASVKLSCKASGYTFASYWMHWVKQRPGQGLEWIGEIDPSDSYRNYNQKFKGKATLTVDKSSSTVNMQLSSLTSEDSAVYYCAKTSGIGRAMDYWGQGTSVTVSS
VL: DIQMIQSPASLSASVGETVTITCRASENIYSFVTWYQQKQGKSPQLLVFNAKNLVEGVPSSFSGSGSGTQFSLKIDSLQPEDFGTYYCQHHYSIPYTFGGGTKLEMR
- anti-apoptotic activity, human Tie2-expressing BaF3 cell (maximum, relative to Ang-1) [2]: ~60%
- EC50 value of anti-apoptotic activity, human Tie2-expressing BaF3 cell [3]: 0.0266 µg/mL
- EC50 [4]: 0.219 µg/mL
- EC50 [5]: 0.224 µg/mL

B3: fully human 2-16A2 (antibody, human IgG1, kappa, V domains shown)
VH: EVQLVESGGGLVQPGGSLRLSCAASGFTFDDYAMHWVRQAPGKGLEWVAGISWNSGSIVYADSVKGRFTISRDNSKNTLYLQMNSLRAEDTAVYYCAKDIREQLVEDAFDIWGQGTLVTVSS
VL: DIQMTQSPSSLSASVGDRVTITCRSSQSLLHSHRYNYLDWYQQKPGKAPKLLIYLGSNRASGVPSRFSGSGSGTDFTLTISSVQPEDFATYYCMQTLQTPLTFGQGTKVEIKR
- EC50 value of anti-apoptotic activity, human Tie2-expressing BaF3 cell [1]: 0.0376 µg/mL

B4: TIE-1-Igγ1-I253A (antibody, human IgG1, kappa, L234A L235A)
heavy: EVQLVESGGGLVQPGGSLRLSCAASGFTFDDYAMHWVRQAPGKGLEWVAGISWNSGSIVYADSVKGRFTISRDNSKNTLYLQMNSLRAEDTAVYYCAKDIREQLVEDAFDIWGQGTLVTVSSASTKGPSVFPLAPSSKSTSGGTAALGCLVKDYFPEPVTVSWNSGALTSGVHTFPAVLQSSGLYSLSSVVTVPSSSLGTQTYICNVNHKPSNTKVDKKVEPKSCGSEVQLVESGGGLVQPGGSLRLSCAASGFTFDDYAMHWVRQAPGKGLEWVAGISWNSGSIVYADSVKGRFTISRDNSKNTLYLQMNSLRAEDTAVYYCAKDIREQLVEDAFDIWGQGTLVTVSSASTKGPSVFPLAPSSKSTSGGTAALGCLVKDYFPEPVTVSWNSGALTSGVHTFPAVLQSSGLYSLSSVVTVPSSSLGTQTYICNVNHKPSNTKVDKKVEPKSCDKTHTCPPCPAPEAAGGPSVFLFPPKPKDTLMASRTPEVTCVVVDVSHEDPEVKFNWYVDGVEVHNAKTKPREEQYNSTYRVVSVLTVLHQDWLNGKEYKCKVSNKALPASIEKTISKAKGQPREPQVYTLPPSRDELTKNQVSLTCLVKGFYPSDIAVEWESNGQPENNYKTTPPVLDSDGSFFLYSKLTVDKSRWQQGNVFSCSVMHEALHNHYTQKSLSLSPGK
light: B1 light
- EC50 value of anti-apoptotic activity, human Tie2-expressing BaF3 cell [6]: 0.00506 µg/mL

Source: patent publication US20160222130A1 (Astellas, published 2016)
